The values that follow come from US20200299408A1 (Genentech, published 2020).

The target of test [1] is T1, single chain human CD3ε-26mer-CD3γ (CD3εγ) (human).
T1 construct: also called human CD3εγ
T1 chain: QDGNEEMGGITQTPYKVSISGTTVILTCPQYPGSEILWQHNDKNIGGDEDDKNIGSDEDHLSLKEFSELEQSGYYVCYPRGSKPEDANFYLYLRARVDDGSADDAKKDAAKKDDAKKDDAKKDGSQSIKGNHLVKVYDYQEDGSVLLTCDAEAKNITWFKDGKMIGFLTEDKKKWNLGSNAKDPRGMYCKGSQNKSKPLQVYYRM
As to the kind of experiment: Biacore, human CD3εγ on chip, Fab in flow through. As for the experimental part:
Binding affinities for the each of the CD3/CD20 TDBs were tested by Biacore or FACS analysis, as described above for the anti-CD3 antibodies. Briefly, for Biacore binding assays, human CD3εγ was immobilized on Biacore Series S CM5 sensor chip using the amine coupling kit from Biacore and CD3/CD20 TDBs or Fab variants thereof were in the flow through. For FACS binding assays, either Bjab cells (for B cell antigens) or Jurkat cells (for CD3 antigen) were incubated with various concentrations of TDB antibodies at 4° C. for 30 minutes, then cells were washed and incubated with 2nd antibody (anti-huIgG-PE; BD Bioscience) for another 15 minutes, before cells were washed again and ready for FACS analysis.

Test [2] concerns the target T1, single chain human CD3ε-26mer-CD3γ …. As to the kind of experiment: Biacore, human CD3εγ on chip, antibody in flow-through.
For test [3] the target is unchanged. Kind of test: Biacore single cycle kinetics; reference of the ratio column. An excerpt:
(§1) In addition, position 95 in HVR-H3 was also mutated to serine, threonine, or glutamate. Variants with these single point mutations were expressed as Fabs in HEK293 cells and initially screened with a single cycle kinetics method on a Biacore T100. Selected variants were also scaled up and purified for a conventional multi-cycle kinetics method. For single cycle kinetics, Biacore Series S CM5 sensor chips were immobilized with anti-human Fab antibodies (Human Fab capture kit, GE Healthcare). […] For conventional multi-cycle kinetics, human CD3εγ, cyno CD3εγ, or a 27-mer peptide were immobilized on Biacore Series S CM5 sensor chip using the amine coupling kit from Biacore. Serial 3-fold dilutions of each Fab variant were injected at a flow rate of 30 μl/min. Each sample was analyzed with a protocol of 3-minute association and 3-minute dissociation. In both methods, the Biacore chips were regenerated using 10 mM Glycine (pH 1.7). Binding response was corrected by blank subtraction and a 1:1Languir model of simultaneous fitting of kₒₙ and koff was used for kinetics analysis.

The next test has as its target T2, cyCD3εγ (cynomolgus monkey).
T2 chain 1: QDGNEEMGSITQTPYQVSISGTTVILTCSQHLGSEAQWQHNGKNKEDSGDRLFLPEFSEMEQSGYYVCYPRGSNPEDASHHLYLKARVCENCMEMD
T2 chain 2: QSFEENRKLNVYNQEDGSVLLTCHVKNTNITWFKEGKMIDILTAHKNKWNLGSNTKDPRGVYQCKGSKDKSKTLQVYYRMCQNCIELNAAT
As to the kind of experiment: monovalent binding affinity, method not stated on the sheet.

For test [4], the target named is T1, single chain human CD3ε-26mer-CD3γ …. As to the kind of experiment: Biacore full (multi-) cycle kinetics; reference of the ratio column.
From the text: as §1

Test [5] has the same target. As to the kind of experiment: monovalent binding affinity, method not stated on the sheet; column huCD3εγ.
For test [6] the target is unchanged. Kind of test: Biacore single cycle kinetics: Fab captured by anti-human Fab, human CD3εγ injected (3-250 nM).
From the text: as §1

For test [7] the target is unchanged. As to the kind of experiment: Biacore, monovalent KD of the CD3 arm; CD3 antigen not named on the sheet (reactivity hu, cyno).
Test [8] has the same target. As to the kind of experiment: Biacore full (multi-) cycle kinetics: antigen on chip, Fab injected; antigen not named on the sheet, taken as human CD3εγ.
From the text: as §1

The target of a further test is T3, E6A.
T3 construct: Residue number counts from the N-terminus of CD3ε; also called CD3εγ E6A; CD3 mutant E6A
T3 single chain CD3ε-26mer linker-CD3γ: T1 chain with E6A
Kind of test: SPR (Biacore 4000): CD3εγ variant captured from the periplasmic fraction on UCHT1v9; analyte a bispecific antibody with one 38E4v1 arm and one irrelevant arm, 0.39-100 nM. The procedure: (§2) The secreted CD3εγ variants were captured from the crude periplasmic fraction using anti-CD3 antibody UCHT1v9. UCHT1v9 was immobilized on a CM5 serios S chip through amine coupling using the anti-human IgG (Fc) antibody capture kit (BR-1008-39) from GE Healthcare. SPR measurements were performed on the Biacore 4000 instrument, utilizing kinetic evaluation software. In order to measure monovalent binding affinities, anti-CD3 bispecific antibodies were used in which one arm was the anti-CD3 to be tested and the arm recognized an irrelevant antigen. The bispecific anti-CD3 antibodies were passed over the captured supernatant in a concentration series of two-fold dilutions from 0.39 to 100 nM. The resulting kinetics (FIG. 13D) were measured and calculated using Biacore 4000 BIAevaluation software (product code 28-9664-57).

The next test has as its target T4, M7A.
T4 construct: Residue number counts from the N-terminus of CD3ε; also called CD3εγ M7A
T4 single chain CD3ε-26mer linker-CD3γ: T1 chain with M7A
The test is described as above. As for the experimental part:
as §2

Substitutions are numbered along the chain they refer to.

B1: hu38E4.v1 Fab (Fab, V domains shown)
VH: EVQLVQSGAEVKKPGASVKVSCKASGFTFTSYYIHWVRQAPGQGLEWIGWIYPENDNTKYNEKFKDRVTITADTSTSTAYLELSSLRSEDTAVYYCARDGYSRYYFDYWGQGTLVTVSS
VL: DIVMTQSPDSLAVSLGERATINCKSSQSLLNSRTRKNYLAWYQQKPGQSPKLLIYWTSTRKSGVPDRFSGSGSGTDFTLTISSLQAEDVAVYYCKQSFILRTFGQGTKVEIK
notes: Humanized anti-CD3 Fab; Point mutants of it were expressed as Fabs in HEK293 cells
Consider B1, for which the equilibrium dissociation constant (Kd) in test [1] worked out at 800 pM; in [2], 800 pM; with cyCD3εγ, 700 pM; in test [5] it was 500 pM; in test [6], 3400 pM; in test [7] it was 1300 pM. Also, the Kd in [8] was found to be 800 pM; with E6A, 65000 pM; with M7A it was 13000 pM. The koff came out at 0.00507 s⁻¹ in test [1], 0.0051 s⁻¹ in test [2], 0.00108 s⁻¹ in test [6] and 0.00433 s⁻¹ in [8]. For the same molecule, the kon is 6.06e+06 M⁻¹ s⁻¹ in test [1], 6.06e+06 M⁻¹ s⁻¹ in [2], 320000 M⁻¹ s⁻¹ in test [6] and 5.44e+06 M⁻¹ s⁻¹ in test [8]. In addition, the “ratio (fold)” value in test [3] and in [4] was 1 fold throughout.
